Molecular target: T1, human S100A5 (human)
T1 sequence (P33763 1-92, looked up): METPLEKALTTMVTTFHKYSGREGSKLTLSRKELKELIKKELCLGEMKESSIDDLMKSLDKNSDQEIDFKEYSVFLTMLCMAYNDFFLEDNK
Assay: ITC

Kd: 18 ± 4 µM
dH: -3.6 ± 1 kcal/mol
Binder: RRLLFYKYVYKR [12 amino acid fragment of the protein NCX1]
